Laboratory results from the supplement of paper PMC12042874.
± gives the uncertainty stated by the source.

Test: amyloid nucleation score (Sup35N fusion, yeast selection) (log enrichment); library NNK3; higher = more nucleation; inactive = no reads after selection
Procedure, shortened: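 Peptides of 20 random codons, each fused to Sup35N, were expressed in psi-negative yeast. Cells were induced with 100 μM copper sulfate for 24 hours and grown 7 days at 30°C on medium lacking adenine and uracil, and plasmid inserts before and after selection were Illumina-sequenced. Nucleation scores are DiMSum log enrichments of output over input reads, centred on the mode score of non-aggregating sequences, and sequences under 100 input reads were excluded.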
For IDVRGSMYGVMMYHSTRDVT, the amyloid nucleation score was “inactive”.
NTEITQLSIVLFCILYQYSV gave an amyloid nucleation score of 1.46 ± 0.11.
For ASNYDYVYMPTWDKDRFSRY, the amyloid nucleation score was “inactive”.
For YFVCVEEVRKYMEPSELGVR, the amyloid nucleation score was “inactive”.
With NVRNLGRSFNWMSSCGNLCD the amyloid nucleation score was “inactive”.
For VTNQSFDQPESLVEM, the amyloid nucleation score was “inactive”.
For TRRGSDLPSVLAMFLSKSTR, the amyloid nucleation score was “inactive”.
With GTLDNDRVIVWSDLDFSCFR the amyloid nucleation score was “inactive”.
Substance SFSSLQFVNIATPHY has an amyloid nucleation score of 0.42 ± 0.2.
In the case of SQWIIGFTVTCFSSCKILKM, the amyloid nucleation score is reported as “inactive”.
FCFFSVSLDVLVHSGIC gave an amyloid nucleation score of 0.417 ± 0.19.
Substance QRVLY has an amyloid nucleation score of 0.864 ± 0.15.
In the case of SVSVLV, the amyloid nucleation score is reported as “inactive”.
With QVILHHMADKKAFISTSSSS the amyloid nucleation score was 1.52 ± 0.074.
For HGERSDKMLDSGSPYMAPSG, the amyloid nucleation score was “inactive”.
For VGDVKAISVGCVGVLEFSAA, the amyloid nucleation score was “inactive”.
With SFNCPNAWSVYLL the amyloid nucleation score was “inactive”.
With SPICNEEYNNVDTCILWGYF the amyloid nucleation score was “inactive”.
With CKNLWRVLGISPTRSSSMRV the amyloid nucleation score was “inactive”.
With TRRSKGQFIYCPSNGMKCSG the amyloid nucleation score was “inactive”.
In the case of RRTPLWSPMVRNLSYALLAG, the amyloid nucleation score is reported as “inactive”.
With LWRKMVVPYFYP the amyloid nucleation score was “inactive”.
With PVYGRIKANLKMGLAGGSWV the amyloid nucleation score was “inactive”.
For QCTASLEHHFVNNQDNASAW, the amyloid nucleation score was “inactive”.
Work on NLGRFLFSICCASLFAGCNG yielded an amyloid nucleation score of -0.245 ± 0.99.
With NDFLCI the amyloid nucleation score was “inactive”.
In the case of DGVLNRSNDHPVQTPWPWFW, the amyloid nucleation score is reported as “inactive”.
With AFKECARRR the amyloid nucleation score was “inactive”.
With SMFYMRFHVQ the amyloid nucleation score was “inactive”.
For TSGWEFRRFPNFQLLILSCF, the amyloid nucleation score was “inactive”.
For QWKPWDNTAVGMLPAWIWVD, the amyloid nucleation score was “inactive”.
In the case of YSSHVPSLHQLDQVSRRVQG, the amyloid nucleation score is reported as “inactive”.
For FIVFTDF, the amyloid nucleation score was “inactive”.
In the case of RKKESYSN, the amyloid nucleation score is reported as “inactive”.
For TCIGPGRFFFMMFYV, the amyloid nucleation score was “inactive”.
With VVRYHSMYKDCYFLKRFVIL the amyloid nucleation score was “inactive”.
With GERVSSESGRMPLPLCCYLV the amyloid nucleation score was “inactive”.
With SGISCGLGLATGRKYGSGAV the amyloid nucleation score was “inactive”.
For LCRGYDRLKRPHSVVSGSIC, the amyloid nucleation score was “inactive”.
With LDARN the amyloid nucleation score was -0.213 ± 1.5.
For WSMCKLKDFFTGRGVYRFIS, the amyloid nucleation score was “inactive”.
LLHFVHNSSSMLVRRREETG gave an amyloid nucleation score of 0.262 ± 0.39.
For TPLDDLMCQLCSGYPLVILP, the amyloid nucleation score was “inactive”.
In the case of IMKCICVYVFINCHKWDVHA, the amyloid nucleation score is reported as “inactive”.
For MYDLDHSFCTLLTEVRALMK, the amyloid nucleation score was -0.396 ± 1.4.
For CESRP, the amyloid nucleation score was “inactive”.
For KSFQGSITILVFSWLINNPR, the amyloid nucleation score was “inactive”.
Work on LAFYNQHWNFSMRSGMQGFK yielded an amyloid nucleation score of 1.05 ± 0.23.
In the case of HTGHHWNRLHETQNSRL, the amyloid nucleation score is reported as “inactive”.
In the case of TRSRFWRRTKLPLVSVRYHN, the amyloid nucleation score is reported as “inactive”.
For FTSVMKNNV, the amyloid nucleation score was “inactive”.
In the case of VRRDLGFFSRNVT, the amyloid nucleation score is reported as “inactive”.
In the case of NFSFELMKDHYIGLQMVV, the amyloid nucleation score is reported as “inactive”.
With NRSEEIFVSSATELTRLIVH the amyloid nucleation score was “inactive”.
For STETYWYSHLIINLVGSWF, the amyloid nucleation score was “inactive”.
In the case of EQIGGI, the amyloid nucleation score is reported as “inactive”.
In the case of LSCMNRTQCHASFSLPL, the amyloid nucleation score is reported as “inactive”.
For DPLLLNRFGNCMLTLWVIVR, the amyloid nucleation score was “inactive”.
With PVHGSKGPSGHVCRQCGFLM the amyloid nucleation score was “inactive”.
Substance CIYCTSSL has an amyloid nucleation score of 0.519 ± 0.21.
FTSGTMVFTRLFRSNQQWWS showed an amyloid nucleation score of 1.53 ± 0.13.
YRTIVVLSNFFNILSFSKNQ showed an amyloid nucleation score of 0.718 ± 0.15.
With GKLCYYSVYWESALNQPRSS the amyloid nucleation score was “inactive”.
In the case of GYVTCDLL, the amyloid nucleation score is reported as 1.1 ± 0.11.
With ASARRCVSVVLIHTAKIHRN the amyloid nucleation score was “inactive”.
With PHMQCLINF the amyloid nucleation score was “inactive”.
With KVSYSQTPISGRTDTPVPDR the amyloid nucleation score was 0.294 ± 0.2.
For TWCFDSACNANGTWR, the amyloid nucleation score was “inactive”.
With VVMWAPLRYDFKSKDRAVES the amyloid nucleation score was “inactive”.
IFVNWMVISVGLARFDVINA gave an amyloid nucleation score of -0.579 ± 0.69.
In the case of TNNAIGVFSLECIGFPEAGR, the amyloid nucleation score is reported as “inactive”.
In the case of ESGNSSAFMAVMRISGTDVV, the amyloid nucleation score is reported as “inactive”.
In the case of RELRF, the amyloid nucleation score is reported as “inactive”.
In the case of KRGNQGGAMEDFLCNADIRV, the amyloid nucleation score is reported as “inactive”.
In the case of NLSLLSLVSFEVEVIQCTMR, the amyloid nucleation score is reported as “inactive”.
With STIISWWSTVIYFKLI the amyloid nucleation score was “inactive”.
In the case of FALMFLSWYNRKSVSRPCTE, the amyloid nucleation score is reported as “inactive”.
For NDKYWTIHMTSLGQRLIFAE, the amyloid nucleation score was 1.25 ± 0.15.
Substance WGQMR has an amyloid nucleation score of 0.456 ± 0.37.
In the case of LQLRSLF, the amyloid nucleation score is reported as “inactive”.
In the case of KYFTLDMNRKSISYL, the amyloid nucleation score is reported as “inactive”.
In the case of YDLRIYSKRVDPF, the amyloid nucleation score is reported as “inactive”.
In the case of LLTKSLNPYMMGCSSSIMQC, the amyloid nucleation score is reported as “inactive”.
With RFISEYCMFENKEMVEPSFG the amyloid nucleation score was “inactive”.
LNLQPRVDVVLVLFRTRANK gave an amyloid nucleation score of 0.767 ± 0.25.
Work on RGLQELLWI yielded an amyloid nucleation score of -0.999 ± 1.9.
For SSSLCASWHPYLKWKSYRMF, the amyloid nucleation score was “inactive”.
With TQAWSTL the amyloid nucleation score was “inactive”.
With RMPYKMQFFCNLWLSVYSTL the amyloid nucleation score was “inactive”.
For HFLFRVRRGTWK, the amyloid nucleation score was 0.396 ± 0.34.
For NSSNVFVLIVCMYWKFSYSC, the amyloid nucleation score was “inactive”.
In the case of KLNAVYTRSAGWLSHQEM, the amyloid nucleation score is reported as “inactive”.
For AIAWYLLLHSRRMIWCINCP, the amyloid nucleation score was “inactive”.
In the case of VFVKCWNVGSCIATDEYMSE, the amyloid nucleation score is reported as 2.2 ± 0.078.
Substance MSVTITGALQVVTKVPANMI has an amyloid nucleation score of 0.593 ± 0.2.
For LNFPQMSYP, the amyloid nucleation score was “inactive”.
In the case of SLVTRGLPVCRFRSDSDYSI, the amyloid nucleation score is reported as “inactive”.
With DDGDVNDGRTWFIL the amyloid nucleation score was “inactive”.
In the case of RGKFHRVA, the amyloid nucleation score is reported as “inactive”.
With ACKLIEFSSQQVFVGFGVHA the amyloid nucleation score was “inactive”.
In the case of FLLRYWYKAVDSRHRYSQLI, the amyloid nucleation score is reported as “inactive”.
With WMMDEMLVFLTH the amyloid nucleation score was “inactive”.
With MWAGCGVSGPALGHAGSARR the amyloid nucleation score was “inactive”.
With ISALKQSS the amyloid nucleation score was “inactive”.
With CWPSVMFKISADNSGWFGVD the amyloid nucleation score was “inactive”.
Substance HEMAYVVPTLVYYVYNTNSR has an amyloid nucleation score of -0.076 ± 0.66.
With SNKECLLGIGWFASYKVIPT the amyloid nucleation score was “inactive”.
For CMVLDGRYNGWSISVWDARL, the amyloid nucleation score was “inactive”.
In the case of RSALRVM, the amyloid nucleation score is reported as “inactive”.
In the case of ILWFMDGMIRSRGVPLGDGC, the amyloid nucleation score is reported as “inactive”.
In the case of LLRIPGF, the amyloid nucleation score is reported as “inactive”.
Substance VGGFFTSYKNYTK has an amyloid nucleation score of 0.671 ± 0.27.
For YRDRYLDPLWAD, the amyloid nucleation score was “inactive”.
With CIDQTTLKHTLDNCLIFF the amyloid nucleation score was “inactive”.
For VQLLDRNEIFGVWGSIELLQ, the amyloid nucleation score was “inactive”.
With VKSFFSKGSCDNDTNINRRS the amyloid nucleation score was “inactive”.
For TLTWHNVWGCICGKFLTV, the amyloid nucleation score was “inactive”.
Work on STWMNTDYGDTTV yielded an amyloid nucleation score of -0.277 ± 0.96.
